Source: patent US20250304667A1 (ALLERGAN, published 2025)
Numbering of substitutions follows the chain as printed. Where two headings read alike, the source gives them in different places.

Key:
[1] = molecular target: insoluble C5b-9 complex deposited on IgM-coated ELISA plates after complement activation of normal human serum (human) (UniProt P01031); assay: ELISA on C5b-9 deposited on IgM-coated plates from 2% normal human serum, anti-mouse HRP, Abs 450nm (Example 7)
[2] = molecular target: Soluble C5b-9 (CompTech, A127) (UniProt P01031); assay: BLI (Octet), antibody amine-coupled to AR2G tips, soluble C5b-9 at 30 ug/ml, 300 s association (Example 8)
[3] = molecular target: Soluble C5b-9 (CompTech, A127) (UniProt P01031); assay: as above; remark: listed apart in the source
[4] = molecular target: T1, human complement Component 5 (C5) (human, UniProt P01031 19-1676, limits assumed); assay: cell-based or functional assay
[5] = molecular target: T1, human complement Component 5 (C5); assay: cell-based or functional assay; remark: listed apart in the source
[6] = molecular target: T1, human complement Component 5 (C5); assay: cell-based or functional assay; remark: listed apart in the source
[7] = molecular target: T1, human complement Component 5 (C5); assay: cell-based or functional assay; remark: listed apart in the source

T1 sequence (P01031 19-1676 limits assumed): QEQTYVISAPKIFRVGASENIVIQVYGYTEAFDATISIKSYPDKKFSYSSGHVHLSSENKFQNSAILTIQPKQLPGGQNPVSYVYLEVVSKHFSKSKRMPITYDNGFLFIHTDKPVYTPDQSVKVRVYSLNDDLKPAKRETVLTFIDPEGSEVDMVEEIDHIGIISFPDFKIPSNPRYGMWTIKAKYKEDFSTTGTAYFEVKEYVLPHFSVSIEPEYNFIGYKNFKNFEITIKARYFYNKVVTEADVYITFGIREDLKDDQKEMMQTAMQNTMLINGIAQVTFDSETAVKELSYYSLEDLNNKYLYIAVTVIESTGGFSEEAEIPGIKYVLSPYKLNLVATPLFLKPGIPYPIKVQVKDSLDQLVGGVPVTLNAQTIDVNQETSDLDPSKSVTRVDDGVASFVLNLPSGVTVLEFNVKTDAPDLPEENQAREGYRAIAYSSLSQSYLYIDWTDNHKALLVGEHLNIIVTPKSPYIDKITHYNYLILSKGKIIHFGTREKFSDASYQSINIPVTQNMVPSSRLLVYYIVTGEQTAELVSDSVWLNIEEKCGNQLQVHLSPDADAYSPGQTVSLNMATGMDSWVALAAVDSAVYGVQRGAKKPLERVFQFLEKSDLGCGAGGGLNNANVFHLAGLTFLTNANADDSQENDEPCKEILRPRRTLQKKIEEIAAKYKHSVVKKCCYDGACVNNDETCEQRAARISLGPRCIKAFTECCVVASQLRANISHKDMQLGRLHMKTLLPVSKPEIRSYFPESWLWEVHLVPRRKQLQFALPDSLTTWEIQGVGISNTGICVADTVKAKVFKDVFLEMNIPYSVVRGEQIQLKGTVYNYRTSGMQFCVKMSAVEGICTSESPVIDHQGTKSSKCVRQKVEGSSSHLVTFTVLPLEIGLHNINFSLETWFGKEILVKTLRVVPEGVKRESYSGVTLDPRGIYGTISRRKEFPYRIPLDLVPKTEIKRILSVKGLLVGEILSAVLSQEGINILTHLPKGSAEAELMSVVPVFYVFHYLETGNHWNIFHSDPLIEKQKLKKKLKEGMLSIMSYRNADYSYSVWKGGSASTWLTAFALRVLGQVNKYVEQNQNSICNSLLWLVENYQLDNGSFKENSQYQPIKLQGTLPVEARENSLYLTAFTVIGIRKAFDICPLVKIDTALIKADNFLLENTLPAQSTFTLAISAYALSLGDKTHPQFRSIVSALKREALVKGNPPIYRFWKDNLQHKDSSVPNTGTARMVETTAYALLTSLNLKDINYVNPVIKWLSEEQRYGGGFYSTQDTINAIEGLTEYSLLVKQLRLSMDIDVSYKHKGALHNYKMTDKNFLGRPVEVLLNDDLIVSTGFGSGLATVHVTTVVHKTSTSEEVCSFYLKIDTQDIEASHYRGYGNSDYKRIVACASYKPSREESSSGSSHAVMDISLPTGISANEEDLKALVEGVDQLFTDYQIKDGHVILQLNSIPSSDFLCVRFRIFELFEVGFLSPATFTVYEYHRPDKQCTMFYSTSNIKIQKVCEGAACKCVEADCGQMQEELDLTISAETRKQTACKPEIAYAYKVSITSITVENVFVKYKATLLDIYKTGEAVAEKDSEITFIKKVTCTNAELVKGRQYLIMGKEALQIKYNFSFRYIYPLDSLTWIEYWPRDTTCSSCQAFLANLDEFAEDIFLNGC

“anti-C5b-9 mouse monoclonal antibody (Quidel A239)” gave an EC50 (read off the curve) [1] of 0.04 µg/mL, a Displacement @ 300s. [2] of 0.67 nm and a Displacement @ 300s. [3] of 0.86 nm.

B1: H1L3-IgG (antibody, V domains shown)
VH: QVQLVQSGAEVKKPGASVKVSCKASGYTFTDEYMNWVRQAPGQSLEWMGYINPNNGGADYNQKFQGRVTMTVDQSISTAYMELSRLRSDDTAVYFCARLGYSNPYFDFWGQGTLVTVSS
VL: DIVLTQSPSFLSASVGDRVTITCQASQDVNTAVAWYLQKPGKSPKLLIYWASTRHTGVPARFTGSGSGTDYTLTISSLQPEDFAVYFCQQHHVSPWTFGGGTKVEIK
B1 was tested, and the “IC50 (read off the curve), OD (450nM)” value [4] was ~0.5 µg/mL and the “IC50 (read off the curve), % Inhibition” value [5] was ~3 µg/mL.

B2: H1L4-Fab (Fab, V domains shown)
VH: B1 VH
VL: B1 VL with S9A, F10T, A13L, V15P, D17E, V19A, I21L, T22S, Q24R, L37Q
B2 was tested, and the “IC50 (read off the curve), OD (450nM)” value [6] was ~0.4 µg/mL and the “IC50 (read off the curve), % Inhibition” value [7] was ~2 µg/mL.

B3: H3L3-IgG (antibody, V domains shown)
VH: B1 VH with Q62P, K63S, F64L, Q65K, G66S, M70I, T71S
VL: B1 VL
With B3 the “IC50 (read off the curve), OD (450nM)” value [4] was ~0.8 µg/mL.

B4: H5L4-Fab (Fab, V domains shown)
VH: B1 VH with V5K, Q43K
VL: B1 VL with S9A, F10T, A13L, V15P, D17E, V19A, I21L, T22S, Q24R, L37Q
B4 was tested, and the “IC50 (read off the curve), OD (450nM)” value [6] was ~0.4 µg/mL and the “IC50 (read off the curve), % Inhibition” value [7] was ~2 µg/mL.

B5: H5L3-Fab (Fab, V domains shown)
VH: B1 VH with V5K, Q43K
VL: B1 VL
In the case of B5, the “IC50 (read off the curve), OD (450nM)” value [6] is reported as ~0.4 µg/mL and the “IC50 (read off the curve), % Inhibition” value [7] is reported as ~2 µg/mL.

B6: H3L3-Fab (Fab, V domains shown)
VH: B1 VH with Q62P, K63S, F64L, Q65K, G66S, M70I, T71S
VL: B1 VL
For B6, the “IC50 (read off the curve), OD (450nM)” value [6] was ~0.5 µg/mL.

B7: H1L4-IgG (antibody, V domains shown)
VH: B1 VH
VL: B1 VL with S9A, F10T, A13L, V15P, D17E, V19A, I21L, T22S, Q24R, L37Q
For B7, the “IC50 (read off the curve), OD (450nM)” value [4] was ~0.5 µg/mL and the “IC50 (read off the curve), % Inhibition” value [5] was ~3 µg/mL.

B8: H5L4-IgG (antibody, V domains shown)
VH: B1 VH with V5K, Q43K
VL: B1 VL with S9A, F10T, A13L, V15P, D17E, V19A, I21L, T22S, Q24R, L37Q
With B8 the “IC50 (read off the curve), OD (450nM)” value [4] was ~0.5 µg/mL and the “IC50 (read off the curve), % Inhibition” value [5] was ~3 µg/mL.
